Bridges are numbered along the chain shown (N, C = ends). Where no end group is shown, it is not given here. [ ]: non-standard residue; d: D form. The star is where a group is joined. Acetyl(2-(4-imidazolyl)) = O=C(Cc1c[nH]cn1)*; Aib = CC(C)(N)C(=O)O
B1: triple agonist of SEQ ID NO: 1 (peptide)
peptide: H[Aib]QGTFTSDVSSYLDGQAAKEFIAWLVKGC
B2: triple agonist of SEQ ID NO: 4 (peptide)
peptide: H[Aib]QGTFTSDVSSYLLGQQQKEFIAWLVKGC
B3: triple agonist of SEQ ID NO: 34 (peptide)
peptide: H[Aib]QGTFTSDYSKYLDEKRQKEFVNWLLAQKC
modifications: bridge 16-20
B4: triple agonist of SEQ ID NO: 35 (peptide)
peptide: H[Aib]QGTFTSDYSIAMDEIHQKDFVNWLLNTKC
modifications: bridge 16-20
B5: triple agonist of SEQ ID NO: 36 (peptide)
peptide: H[Aib]QGTFTSDYSKYLCEKRQKEFVQWLLNGGPSSGAPPPSG
modifications: bridge 16-20
B6: triple agonist of SEQ ID NO: 37 (peptide)
peptide: H[Aib]QGTFTSDYSKYLDECRQKEFVQWLLNGGPSSGAPPPSG
modifications: bridge 16-20
B7: triple agonist of SEQ ID NO: 38 (peptide)
peptide: [Acetyl(2-(4-imidazolyl))][Aib]QGTFTSDKSSYLDERAAQDFVQWLLDGGPSSGAPPPSS
modifications: not fully specified
B8: triple agonist of SEQ ID NO: 39 (peptide)
peptide: H[Aib]QGTFTSDYSKYLDGQHAQCFVAWLLAGGGPSSGAPPPS
B9: triple agonist of SEQ ID NO: 40 (peptide)
peptide: H[Aib]QGTFTSDKSKYLDERACQDFVQWLLDGGPSSGAPPPS
B10: triple agonist of SEQ ID NO: 41 (peptide)
peptide: H[Aib]QGTFTSDKSKYLDECAAQDFVQWLLDGGPSSGAPPPS
B11: triple agonist of SEQ ID NO: 42 (peptide)
peptide: Y[Aib]QGTFTSDYSKYLDEKRAKEFVQWLLDHHPSSGQPPPSC
modifications: bridge 16-20
B12: triple agonist of SEQ ID NO: 43 (peptide)
peptide: Y[Aib]QGTFTSDYSKYLDEKRAKEFVQWLLDHHCSSGQPPPS
modifications: bridge 16-20
B13: triple agonist of SEQ ID NO: 5 (peptide)
peptide: H[Aib]QGTFTSDVSSYLLGQQQKEFIAWLVKGGGPSSGAPPPSC

How the values were obtained:
Test in all cases: cell-based or functional assay
[1] = biological target: human GLP-1 receptor (human, UniProt P43220 24-463)
[2] = biological target: T1, human GIP receptor (human, UniProt P48546 22-466)
T1 sequence (looked up): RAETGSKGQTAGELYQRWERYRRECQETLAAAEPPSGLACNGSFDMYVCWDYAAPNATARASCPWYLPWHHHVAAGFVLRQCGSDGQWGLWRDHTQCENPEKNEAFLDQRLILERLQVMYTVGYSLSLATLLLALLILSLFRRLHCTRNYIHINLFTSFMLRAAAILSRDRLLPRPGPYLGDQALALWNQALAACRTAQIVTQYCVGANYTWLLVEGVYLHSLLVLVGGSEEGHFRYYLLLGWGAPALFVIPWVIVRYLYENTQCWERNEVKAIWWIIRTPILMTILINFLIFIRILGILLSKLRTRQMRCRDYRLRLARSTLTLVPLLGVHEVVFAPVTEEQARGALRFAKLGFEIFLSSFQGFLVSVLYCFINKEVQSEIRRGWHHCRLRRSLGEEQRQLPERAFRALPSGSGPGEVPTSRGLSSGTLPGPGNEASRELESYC

[3] = biological target: human GCG receptor (human, UniProt P47871 26-477)
Sequence of human GCG receptor (P47871 26-477): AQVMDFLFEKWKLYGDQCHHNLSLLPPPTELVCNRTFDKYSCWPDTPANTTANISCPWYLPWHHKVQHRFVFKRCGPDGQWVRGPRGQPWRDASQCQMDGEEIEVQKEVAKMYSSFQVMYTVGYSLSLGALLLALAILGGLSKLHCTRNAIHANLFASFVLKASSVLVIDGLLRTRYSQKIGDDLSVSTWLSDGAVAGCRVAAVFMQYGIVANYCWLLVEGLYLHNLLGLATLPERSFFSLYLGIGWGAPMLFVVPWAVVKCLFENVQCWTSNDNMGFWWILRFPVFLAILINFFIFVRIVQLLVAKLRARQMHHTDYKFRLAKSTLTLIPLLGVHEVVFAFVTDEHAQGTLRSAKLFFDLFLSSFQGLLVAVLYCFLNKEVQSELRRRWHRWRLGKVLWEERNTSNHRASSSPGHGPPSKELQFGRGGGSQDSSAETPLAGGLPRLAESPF

Binder	In vitro activity relative to native peptide (%) vs. GLP-1 [1] [%]	In vitro activity relative to native peptide (%) vs. GIP [2] [%]	In vitro activity relative to native peptide (%) vs. Glucagon [3] [%]
B1	3.2	< 0.1	< 0.1
B2	8.5	< 0.1	< 0.1
B3	19.1	0.6	0.92
B4	7.5	1.3	< 0.1
B5	37.4	0.2	0.39
B6	236	2.2	6.21
B7	2.3	1	1
B8	13.9	< 0.1	0.53
B9	75.2	< 0.1	< 0.1
B10	34.3	< 0.1	< 0.1
B11	33.9	7.8	206
B12	12.6	3.7	88.4
B13	42.1	< 0.1	< 0.1
